Article PMC12363175 (2025)

B1: Chinese hamster ACE2 ectodomain fused with mFc (Fc fusion)
chain: QSIIEEQAKTFLDKFNQEAEDLSYQSALASWNYNTNITEENAQKMNEAAAKWSAFYEEQSKLAKNYSLQEVQNLIIKRQLQALQQSGSSALSADKNKQLNTILNTMSTIYSTGKVCNPKNPQECLLLEPGLDDIMATSTDYNERLWAWEGWRAEVGKQLRPLYEEYVVLKNEMARANNYKDYGDYWRGDYEAEGADGYNYNGNQLIEDVERTFKEIKPLYEQLHAYVRTKLMDTYPSFISPTGCLPAHLLGDMWGRFWTNLYPLTVPFGQKPNIDVTDAMVNQGWDAERIFKEAEKFFVSVGLPHMTQGFWGNSMLTDPGDDRKVVCHPTAWDLGKGDFRIKMCTKVTMDNFLTAHHEMGHIQYDMAYATQPFLLRNGANEGFHEAVGEIMSLSAATPKHLKSIGLLPSNFHEDNETEINFLLKQALTIVGTLPFTYMLEKWRWMVFKGDIPKEKWMEKWWEMKREIVGVVEPLPHDETYCDPAALFHVSNDYSFIRYYTRTIYQFQFQEALCQAAKHDGPLHKCDISNSTEAGQKLLNMLRLGKSEPWTLALENVVGARNMDVRPLLNYFEPLSVWLKEQNKNSFVGWNTDWSPYADQSIKVRISLKSALGENAYEWNDNEMYLFRATVAYAMRVYFAKNKTQTVLFGVEDIRVSDLKPRVSFNFFVTSPQNVSDIIPRNEVEEAVRFSRGRINDVFGLDDNSLEFLGINPTLAPPYQPPVT
B2: golden hamster ACE2 ectodomain fused with mFc (Fc fusion)
chain: QSIIEEQAKTFLDKFNQEAEDLSYQSALASWNYNTNITEENAQKMNEAAAKWSAFYEEQSKLAKNYSLQEVQNLTIKRQLQALQQSGSSALSADKNKQLNTILNTMSTIYSTGKVCNPKNPQECLLLEPGLDDIMATSTDYNERLWAWEGWRAEVGKQLRPLYEEYVVLKNEMARANNYEDYGDYWRGDYEAEGADGYNYNGNQLIEDVERTFKEIKPLYEQLHAYVRTKLMNTYPSYISPTGCLPAHLLGDMWGRFWTNLYPLTVPFGQKPNIDVTDAMVNQGWNAERIFKEAEKFFVSVGLPYMTQGFWENSMLTDPGDDRKVVCHPTAWDLGKGDFRIKMCTKVTMDNFLTAHHEMGHIQYDMAYATQPFLLRNGANEGFHEAVGEIMSLSAATPEHLKSIGLLPSDFQEDNETEINFLLKQALTIVGTLPFTYMLEKWRWMVFKGDIPKEQWMEKWWEMKREIVGVVEPLPHDETYCDPAALFHVSNDYSFIRYYTRTIYQFQFQEALCQAAKHDGPLHKCDISNSTEAGQKLLNMLRLGKSEPWTLALENVVGARNMDVRPLLNYFEPLSVWLKEQNKNSFVGWNTDWSPYADQSIKVRISLKSALGENAYEWDDNEMYLFRASVAYAMRVYFAKNKTQTVPFGVEDIRVSDLKPRVSFNFFVTSPQNVSDIIPRNEVEEAVRLSRGRINDVFGLDDNSLEFLGINPTLSPPYQPPVT
B3: sheep ACE2 ectodomain fused with mFc (Fc fusion)
chain: QSTTEGQAKTFLEKFNHEAEDLSYQSSLASWNYNTNITDENVQKMNEARAKWSAFYEEQSRMARTYSLEEIQNLTLKRQLKALQHSGTSVLSAEKSKRLNTILNKMSTIYSTGKVLDPNTQECLALEPGLDDIMENSRDYNRRLWAWEGWRAEVGKQLRPLYEEYVVLENEMARANNYEDYGDYWRGDYEVTGAGDYDYSRDQLMKDVERTFEEIKPLYEQLHAYVRAKLMDTYPSYISPTGCLPAHLLGDMWGRFWTNLYSLTVPFEHKPSIDVTEKMKNQSWDAERIFKEAEKFFVSIGLPYMTQGFWDNSMLTEPGDGRKVVCHPTAWDLGKGDFRIKMCTKVTMDDFLTAHHEMGHIQYDMAYATQPYLLRNGANEGFHEAVGEIMSLSAATPHYLKALGLLAPDFYEDNETEINFLLKQALTIVGTLPFTYMLEKWRWMVFKGEIPKQQWMEKWWEMKREIVGVVEPLPHDETYCDPACLFHVAEDYSFIRYYTRTIYQFQFHEALCKTAKHEGALFKCDISNSTEAGQRLLQMLRLGKSEPWTLALENIVGIKTMDVKPLLNYFEPLFTWLKEQNRNSFVGWSTEWTPYSDQSIKVRISLKSALGENAYEWNDNEMYLFRSSVAYAMRKYFLKERNETIPFGEENVWVSDKKPRISFKFFVTSPNNVSDIIPRTEVENAIRLCRDRINDAFQLDDNSLEFLGIQPTLRPPYEPP
B4: wild Bactrian camel ACE2 ectodomain fused with mFc (Fc fusion)
chain: QSTTEELAKTFLEEFNHEAEDLSYQSSLASWNYNTNITDENVQKMNDARAKWSTFYEEKSKTAKTYPLEEIQNVTLKRQLQALQQSGASALSADKSKRLTTVLSTMSTIYSSGEVCDPNNPQECLVLEPGLDDIMENSKDYNQRLWAWEGWRAEVGKQLRPLYEEYVVLKNEMARANNYEDYGDYWRGDYEVMWAGDYDYSRDQLMGDVEHTFAEIKPLYEHLHAYVRAKLMDVYPSHISPTGCLPAHLLGDMWGRFWTNLYSLTVPFGQKPNIDVTEAMENQSWDAKRIFKEAEKFFVSIGLPNMTQGFWDNSMLTEPGDGRKVVCHPTAWDLGKGDFRIKMCTKVTMDDFLTAHHEMGHIQYDMAYAIQPFLLRNGANEGFHEAVGEIMSLSAATPHYLKALGLLPADFYEDSETEINFLLKQALTIVGTLPFTYMLEKWRWMVFKGEIPKEQWMQKWWEMKREIVGVVEPLPHDETYCDPACLFHVAEDYSFIRYYTRTIYQFQFHEALCQIAKHEGPLYKCDISNSTEAGQKLLQMLSLGKSEPWTLALEGLVGVKTMDVKPLLNYFEPLLTWLKDQNRNSFVGWSTDWTPYTDQSIKVRISLKSALGDKAYEWNDNEMYLFQSSLAYAMRKYFLKVQNQTILFGVEDVWVSDLKPRISFSFFVTSPKNVSDIIPRTEVEEAIRMSRSRINDAFRLDDNSLEFLGIQPTLGPPYEPP

Molecular target: SARS-CoV-2 PT-RBD (SARS-CoV-2 prototype, UniProt P0DTC2)
Assay: SPR

Binder | Kd [nM]
B1 | 69.4
B2 | 71.8
B3 | 171
B4 | 993
